Test results published in patent US20220298218A1 (ANTAG THERAPEUTICS, published 2022).
Where no end group is shown, it is not given here. The star is where a group is joined. C16 diacid = O=C(O)CCCCCCCCCCCCCCC(=O)*

B1: AT463 (peptide)
peptide: FISDYSIAMDKIK(C16 diacid)QQDFVNWLLAQKGKK-OH
modifications: N-terminus assumed
SMILES: CC[C@H](C)[C@H](NC(=O)[C@H](CO)NC(=O)[C@H](Cc1ccc(O)cc1)NC(=O)[C@H](CC(=O)O)NC(=O)[C@H](CO)NC(=O)[C@@H](NC(=O)[C@@H](N)Cc1ccccc1)[C@@H](C)CC)C(=O)N[C@@H](C)C(=O)N[C@@H](CCSC)C(=O)N[C@@H](CC(=O)O)C(=O)N[C@@H](CCCCN)C(=O)N[C@H](C(=O)N[C@@H](CCCCNC(=O)CCCCCCCCCCCCCCC(=O)O)C(=O)N[C@@H](CCC(N)=O)C(=O)N[C@@H](CCC(N)=O)C(=O)N[C@@H](CC(=O)O)C(=O)N[C@@H](Cc1ccccc1)C(=O)N[C@H](C(=O)N[C@@H](CC(N)=O)C(=O)N[C@@H](Cc1c[nH]c2ccccc12)C(=O)N[C@@H](CC(C)C)C(=O)N[C@@H](CC(C)C)C(=O)N[C@@H](C)C(=O)N[C@@H](CCC(N)=O)C(=O)N[C@@H](CCCCN)C(=O)NCC(=O)N[C@@H](CCCCN)C(=O)N[C@@H](CCCCN)C(=O)O)C(C)C)[C@@H](C)CC
B2: AT462 (peptide)
peptide: TFISDYKIAMDKIHQQDFVNWLLAQKGKKNDWKHNIT
HELM: PEPTIDE1{T.F.I.S.D.Y.K.I.A.M.D.K.I.H.Q.Q.D.F.V.N.W.L.L.A.Q.K.G.K.K.N.D.W.K.H.N.I.T}|PEPTIDE2{[O=C(O)CCCCCCCCCCCCCCC(=O)[*:2]].[gGlu]}$PEPTIDE1,PEPTIDE2,7:R3-2:R2$$$V2.0; N-terminus assumed
SMILES: CC[C@H](C)[C@H](NC(=O)[C@H](CCCCNC(=O)CC[C@H](NC(=O)CCCCCCCCCCCCCCC(=O)O)C(=O)O)NC(=O)[C@H](Cc1ccc(O)cc1)NC(=O)[C@H](CC(=O)O)NC(=O)[C@H](CO)NC(=O)[C@@H](NC(=O)[C@H](Cc1ccccc1)NC(=O)[C@@H](N)[C@@H](C)O)[C@@H](C)CC)C(=O)N[C@@H](C)C(=O)N[C@@H](CCSC)C(=O)N[C@@H](CC(=O)O)C(=O)N[C@@H](CCCCN)C(=O)N[C@H](C(=O)N[C@@H](Cc1c[nH]cn1)C(=O)N[C@@H](CCC(N)=O)C(=O)N[C@@H](CCC(N)=O)C(=O)N[C@@H](CC(=O)O)C(=O)N[C@@H](Cc1ccccc1)C(=O)N[C@H](C(=O)N[C@@H](CC(N)=O)C(=O)N[C@@H](Cc1c[nH]c2ccccc12)C(=O)N[C@@H](CC(C)C)C(=O)N[C@@H](CC(C)C)C(=O)N[C@@H](C)C(=O)N[C@@H](CCC(N)=O)C(=O)N[C@@H](CCCCN)C(=O)NCC(=O)N[C@@H](CCCCN)C(=O)N[C@@H](CCCCN)C(=O)N[C@@H](CC(N)=O)C(=O)N[C@@H](CC(=O)O)C(=O)N[C@@H](Cc1c[nH]c2ccccc12)C(=O)N[C@@H](CCCCN)C(=O)N[C@@H](Cc1c[nH]cn1)C(=O)N[C@@H](CC(N)=O)C(=O)N[C@H](C(=O)N[C@H](C(=O)O)[C@@H](C)O)[C@@H](C)CC)C(C)C)[C@@H](C)CC
B3: AT466 (peptide)
peptide: FISDYSIAMDKIK(C16 diacid)QQDFVNWLLAQKGKKNDWKHNITQ-OH
modifications: N-terminus assumed
SMILES: CC[C@H](C)[C@H](NC(=O)[C@H](CO)NC(=O)[C@H](Cc1ccc(O)cc1)NC(=O)[C@H](CC(=O)O)NC(=O)[C@H](CO)NC(=O)[C@@H](NC(=O)[C@@H](N)Cc1ccccc1)[C@@H](C)CC)C(=O)N[C@@H](C)C(=O)N[C@@H](CCSC)C(=O)N[C@@H](CC(=O)O)C(=O)N[C@@H](CCCCN)C(=O)N[C@H](C(=O)N[C@@H](CCCCNC(=O)CCCCCCCCCCCCCCC(=O)O)C(=O)N[C@@H](CCC(N)=O)C(=O)N[C@@H](CCC(N)=O)C(=O)N[C@@H](CC(=O)O)C(=O)N[C@@H](Cc1ccccc1)C(=O)N[C@H](C(=O)N[C@@H](CC(N)=O)C(=O)N[C@@H](Cc1c[nH]c2ccccc12)C(=O)N[C@@H](CC(C)C)C(=O)N[C@@H](CC(C)C)C(=O)N[C@@H](C)C(=O)N[C@@H](CCC(N)=O)C(=O)N[C@@H](CCCCN)C(=O)NCC(=O)N[C@@H](CCCCN)C(=O)N[C@@H](CCCCN)C(=O)N[C@@H](CC(N)=O)C(=O)N[C@@H](CC(=O)O)C(=O)N[C@@H](Cc1c[nH]c2ccccc12)C(=O)N[C@@H](CCCCN)C(=O)N[C@@H](Cc1c[nH]cn1)C(=O)N[C@@H](CC(N)=O)C(=O)N[C@H](C(=O)N[C@H](C(=O)N[C@@H](CCC(N)=O)C(=O)O)[C@@H](C)O)[C@@H](C)CC)C(C)C)[C@@H](C)CC
B4: AT461 (peptide)
peptide: TFISDYKIAMDKIHQQDFVNWLLAQKGKKNDWKHNI
HELM: PEPTIDE1{T.F.I.S.D.Y.K.I.A.M.D.K.I.H.Q.Q.D.F.V.N.W.L.L.A.Q.K.G.K.K.N.D.W.K.H.N.I}|PEPTIDE2{[O=C(O)CCCCCCCCCCCCCCC(=O)[*:2]].[gGlu]}$PEPTIDE1,PEPTIDE2,7:R3-2:R2$$$V2.0; N-terminus assumed
SMILES: CC[C@H](C)[C@H](NC(=O)[C@H](CC(N)=O)NC(=O)[C@H](Cc1c[nH]cn1)NC(=O)[C@H](CCCCN)NC(=O)[C@H](Cc1c[nH]c2ccccc12)NC(=O)[C@H](CC(=O)O)NC(=O)[C@H](CC(N)=O)NC(=O)[C@H](CCCCN)NC(=O)[C@H](CCCCN)NC(=O)CNC(=O)[C@H](CCCCN)NC(=O)[C@H](CCC(N)=O)NC(=O)[C@H](C)NC(=O)[C@H](CC(C)C)NC(=O)[C@H](CC(C)C)NC(=O)[C@H](Cc1c[nH]c2ccccc12)NC(=O)[C@H](CC(N)=O)NC(=O)[C@@H](NC(=O)[C@H](Cc1ccccc1)NC(=O)[C@H](CC(=O)O)NC(=O)[C@H](CCC(N)=O)NC(=O)[C@H](CCC(N)=O)NC(=O)[C@H](Cc1c[nH]cn1)NC(=O)[C@@H](NC(=O)[C@H](CCCCN)NC(=O)[C@H](CC(=O)O)NC(=O)[C@H](CCSC)NC(=O)[C@H](C)NC(=O)[C@@H](NC(=O)[C@H](CCCCNC(=O)CC[C@H](NC(=O)CCCCCCCCCCCCCCC(=O)O)C(=O)O)NC(=O)[C@H](Cc1ccc(O)cc1)NC(=O)[C@H](CC(=O)O)NC(=O)[C@H](CO)NC(=O)[C@@H](NC(=O)[C@H](Cc1ccccc1)NC(=O)[C@@H](N)[C@@H](C)O)[C@@H](C)CC)[C@@H](C)CC)[C@@H](C)CC)C(C)C)C(=O)O
B5: AT464 (peptide)
peptide: FISDYSIAMDKIK(C16 diacid)QQDFVNWLLAQKGKKNDW-OH
modifications: N-terminus assumed
SMILES: CC[C@H](C)[C@H](NC(=O)[C@H](CO)NC(=O)[C@H](Cc1ccc(O)cc1)NC(=O)[C@H](CC(=O)O)NC(=O)[C@H](CO)NC(=O)[C@@H](NC(=O)[C@@H](N)Cc1ccccc1)[C@@H](C)CC)C(=O)N[C@@H](C)C(=O)N[C@@H](CCSC)C(=O)N[C@@H](CC(=O)O)C(=O)N[C@@H](CCCCN)C(=O)N[C@H](C(=O)N[C@@H](CCCCNC(=O)CCCCCCCCCCCCCCC(=O)O)C(=O)N[C@@H](CCC(N)=O)C(=O)N[C@@H](CCC(N)=O)C(=O)N[C@@H](CC(=O)O)C(=O)N[C@@H](Cc1ccccc1)C(=O)N[C@H](C(=O)N[C@@H](CC(N)=O)C(=O)N[C@@H](Cc1c[nH]c2ccccc12)C(=O)N[C@@H](CC(C)C)C(=O)N[C@@H](CC(C)C)C(=O)N[C@@H](C)C(=O)N[C@@H](CCC(N)=O)C(=O)N[C@@H](CCCCN)C(=O)NCC(=O)N[C@@H](CCCCN)C(=O)N[C@@H](CCCCN)C(=O)N[C@@H](CC(N)=O)C(=O)N[C@@H](CC(=O)O)C(=O)N[C@@H](Cc1c[nH]c2ccccc12)C(=O)O)C(C)C)[C@@H](C)CC
B6: AT465 (peptide)
peptide: FISDYSIAMDKIK(C16 diacid)QQDFVNWLLAQKGKKNDWKHN-OH
modifications: N-terminus assumed
SMILES: CC[C@H](C)[C@H](NC(=O)[C@H](CO)NC(=O)[C@H](Cc1ccc(O)cc1)NC(=O)[C@H](CC(=O)O)NC(=O)[C@H](CO)NC(=O)[C@@H](NC(=O)[C@@H](N)Cc1ccccc1)[C@@H](C)CC)C(=O)N[C@@H](C)C(=O)N[C@@H](CCSC)C(=O)N[C@@H](CC(=O)O)C(=O)N[C@@H](CCCCN)C(=O)N[C@H](C(=O)N[C@@H](CCCCNC(=O)CCCCCCCCCCCCCCC(=O)O)C(=O)N[C@@H](CCC(N)=O)C(=O)N[C@@H](CCC(N)=O)C(=O)N[C@@H](CC(=O)O)C(=O)N[C@@H](Cc1ccccc1)C(=O)N[C@H](C(=O)N[C@@H](CC(N)=O)C(=O)N[C@@H](Cc1c[nH]c2ccccc12)C(=O)N[C@@H](CC(C)C)C(=O)N[C@@H](CC(C)C)C(=O)N[C@@H](C)C(=O)N[C@@H](CCC(N)=O)C(=O)N[C@@H](CCCCN)C(=O)NCC(=O)N[C@@H](CCCCN)C(=O)N[C@@H](CCCCN)C(=O)N[C@@H](CC(N)=O)C(=O)N[C@@H](CC(=O)O)C(=O)N[C@@H](Cc1c[nH]c2ccccc12)C(=O)N[C@@H](CCCCN)C(=O)N[C@@H](Cc1c[nH]cn1)C(=O)N[C@@H](CC(N)=O)C(=O)O)C(C)C)[C@@H](C)CC

Each binder was assayed against T1, human GIP receptor (human, UniProt P48546 22-466) (assay: cell-based or functional assay).
T1 sequence (looked up): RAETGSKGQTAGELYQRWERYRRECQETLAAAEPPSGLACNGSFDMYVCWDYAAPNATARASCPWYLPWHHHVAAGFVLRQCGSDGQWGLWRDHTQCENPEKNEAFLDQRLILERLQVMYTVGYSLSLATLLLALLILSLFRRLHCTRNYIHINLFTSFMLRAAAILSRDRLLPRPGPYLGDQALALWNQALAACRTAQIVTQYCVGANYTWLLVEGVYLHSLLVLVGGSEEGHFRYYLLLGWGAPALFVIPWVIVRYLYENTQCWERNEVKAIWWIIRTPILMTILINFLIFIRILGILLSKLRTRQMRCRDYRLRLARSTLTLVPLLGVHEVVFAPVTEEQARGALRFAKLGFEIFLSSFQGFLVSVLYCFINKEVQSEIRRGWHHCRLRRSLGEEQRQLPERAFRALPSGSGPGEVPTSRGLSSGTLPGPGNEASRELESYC

Compared with B1, B2 is 2.6-fold higher in “cAMP antagonism” value: 14 nM for the first, 37 nM for the second.

B3 and B4 are within 1.5-fold of each other in “cAMP antagonism” value: 16 nM for the first, 23 nM for the second.

Going from B5 to B6, the “cAMP antagonism” value falls from 50 nM to 28 nM (1.8-fold).

Compared with B1, B2 is lower in “cAMP antagonism % inhib” value: 88% for the first, 85% for the second.

Compared with B3, B4 is higher in “cAMP antagonism % inhib” value: 90% for the first, 100% for the second.

Compared with B5, B6 is lower in “cAMP antagonism % inhib” value: 100% for the first, 86% for the second.

First: B1
Second: B2
The cAMP antagonism log of the first is lower: -7.8 log M for the first, -7.4 log M for the second.

Going from B3 to B4, the cAMP antagonism log rises from -7.8 log M to -7.6 log M.

Going from B5 to B6, the cAMP antagonism log falls from -7.3 log M to -7.6 log M.
